These results are taken from patent US20140248273A1 (published 2014).

For this assay, the target named is His-tagged SSL3 (S. aureus strain NCTC 8325), with the pRSETB N-terminal tag carrying the Xpress epitope (Staphylococcus aureus strain NCTC 8325, UniProt Q2G0X7 31-356). As to the kind of experiment: ELISA, coated extracellular domain of mouse TLR2 (FIG. 5A). Background: An ELISA detects its analyte on a solid surface through an enzyme-linked reagent.

B1: recombinant extracellular domain of mouse TLR2 (receptor)
chain: QESLSCDASGVCDGRSRSFTSIPSGLTAAMKSLDLSFNKITYIGHGDLRACANLQVLILKSSRINTIEGDAFYSLGSLEHLDLSDNHLSSLSSSWFGPLSSLKYLNLMGNPYQTLGVTSLFPNLTNLQTLRIGNVETFSEIRRIDFAGLTSLNELEIKALSLRNYQSQSLKSIRDIHHLTLHLSESAFLLEIFADILSSVRYLELRDTNLARFQFSPLPVDEVSSPMKKLAFRGSVLTDESFNELLKLLRYILELSEVEFDDCTLNGLGDFNPSESDVVSELGKVETVTIRRLHIPQFYLFYDLSTVYSLLEKVKRITVENSKVFLVPCSFSQHLKSLEFLDLSENLMVEEYLKNSACKGAWPSLQTLVLSQNHLRSMQKTGEILLTLKNLTSLDISRNTFHPMPDSCQWPEKMRFLNLSSTGIRVVKTCIPQTLEVLDVSNNNLDSFSLFLPRLQELYISRNKLKTLPDASLFPVLLVMKIRENAVSTFSKDQLGSFPKLETLEAGDNHFVCSCELLSFTMETPALAQILVDWPDSYLCDSPPRLHGHRLQDARPSVLECHQ
notes: extracellular domain; also called mTLR2
B1: the binding result is “binds”.
